Reference: patent publication US20080193979A1

Molecular target: streptavidin (UniProt P22629)
Assay: recovery of cells on streptavidin coated magnetic beads (Dynal)

Chain of streptavidin (P22629 37-163 limits assumed): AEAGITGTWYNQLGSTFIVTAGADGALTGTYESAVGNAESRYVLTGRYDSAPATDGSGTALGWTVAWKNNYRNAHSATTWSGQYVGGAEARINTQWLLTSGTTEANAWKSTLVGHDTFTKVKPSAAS

- proportion of cells which bind to the beads: 0.02%
Substance: Ramos IgM (unselected / wild-type Ramos cells, surface and secreted IgM) (antibody)
